Data: paper doi:10.1101/2025.07.16.665076, “GPLD1 is as a scavenger carrier mediating lysosomal degradation of extracellular aberrant proteins” (bioRxiv, 2025)

T1: GPLD1-mCherry-sfGFP-His (GPLD1-RG) (human, UniProt P80108 24-840)
T1 construct: signal peptide in the construct; glycosylphosphatidylinositol-specific phospholipase D1 (GPLD1), human, full length, amplified from HepG2 cDNA; The fusion is said to be 160 kDa; also called GPLD1-RFP-GFP; GPLD1-RG-His; not shown: mCherry, C-terminal, kept; sfGFP, C-terminal, kept; His, C-terminal, kept
T1 sequence (looked up): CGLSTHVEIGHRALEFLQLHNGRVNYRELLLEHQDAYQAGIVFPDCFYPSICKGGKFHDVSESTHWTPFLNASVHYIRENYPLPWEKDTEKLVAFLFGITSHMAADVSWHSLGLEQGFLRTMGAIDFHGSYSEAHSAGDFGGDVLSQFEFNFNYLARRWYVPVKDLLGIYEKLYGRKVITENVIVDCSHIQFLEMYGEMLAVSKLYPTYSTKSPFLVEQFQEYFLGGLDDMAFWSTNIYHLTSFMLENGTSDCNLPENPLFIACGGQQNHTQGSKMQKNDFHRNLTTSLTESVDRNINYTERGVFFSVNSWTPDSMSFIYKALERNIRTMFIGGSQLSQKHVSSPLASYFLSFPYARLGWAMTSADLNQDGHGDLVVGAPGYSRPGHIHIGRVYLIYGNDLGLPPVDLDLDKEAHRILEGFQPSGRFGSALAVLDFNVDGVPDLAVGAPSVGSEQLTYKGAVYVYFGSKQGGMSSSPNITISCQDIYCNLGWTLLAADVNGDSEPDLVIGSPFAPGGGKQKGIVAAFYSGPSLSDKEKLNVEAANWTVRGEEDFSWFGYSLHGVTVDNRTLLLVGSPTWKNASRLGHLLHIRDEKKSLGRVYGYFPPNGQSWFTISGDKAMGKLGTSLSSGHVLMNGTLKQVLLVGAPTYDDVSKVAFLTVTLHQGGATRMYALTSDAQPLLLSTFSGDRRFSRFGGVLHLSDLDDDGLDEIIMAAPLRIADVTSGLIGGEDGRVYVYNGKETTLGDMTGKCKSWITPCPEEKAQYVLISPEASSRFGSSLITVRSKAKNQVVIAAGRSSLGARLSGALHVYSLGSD


Molecular target: T1, GPLD1-mCherry-sfGFP-His (GPLD1-RG)
Assay: co-IP; purified RG-tagged protein (GPLD1-RG 40 nM) and ALFA-tagged substrate (His-ALFA-SAA1 500 nM) in PBS, 37°C with shaking for 2 h, aggregates spun out; ALFA nanobody beads at 4°C for 2 h, four washes with PBS; immunoblot
Conditions: both partners purified

binding result	Binder
binds	His-ALFA-SAA1-N terminus (SAA1-N) (domain or fragment, human, UniProt P0DJI8 19-94, looked up, serum amyloid A1 (SAA1), human, amino acids 19-94: the N-terminal 76 residues, core amyloidogenic fragment; Prepared in 8 M urea-denatured form for all experiments; it aggregates on incubation in PBS; also called His-ALFA-tagged SAA1-N; source: E. coli BL21(DE3) pLysS, purified from inclusion bodies (Co-NTA, 8 M urea), stored in urea; not shown: His, N-terminal, kept; ALFA, N-terminal, kept) RSFFSFLGEAFDGARDMWRAYSDMREANYIGSDKYFHARGNYDAAKRGPGGAWAAEVITDARENIQRFFGHGAEDS
binds	His-ALFA-SAA1-Full length (SAA1-F) (natural protein, human, UniProt P0DJI8 19-122, looked up, serum amyloid A1 (SAA1), human, amino acids 19-122; Used in native form in the immunoprecipitation; the purification of the native form is not described; also called native ALFA-SAA1-F (full-length); source: E. coli BL21(DE3) pLysS, recombinant; not shown: His, N-terminal, kept; ALFA, N-terminal, kept) RSFFSFLGEAFDGARDMWRAYSDMREANYIGSDKYFHARGNYDAAKRGPGGAWAAEVITDARENIQRFFGHGAEDSLADQAANEWGRSGKDPNHFRPAGLPEKY
